From PMC2720046 (Science (New York, N.Y.), 2008)

How the values were obtained:
[1] = system: CEP55-EABR; type: binding; details: pull-down by GST-ALIX fragment with TSG101 peptide competitor
[2] = target: T1, CEP55-EABR (residues 160−217) (Homo sapiens, UniProt Q53EZ4); assay: ITC titration of peptide into CEP55-EABR solution; type: binding; details: compared with ALIX peptide
T1 sequence (Q53EZ4 160-217): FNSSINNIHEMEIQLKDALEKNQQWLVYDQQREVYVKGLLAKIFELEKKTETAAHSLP

[3] = system: CEP55-EABR; assay: Analytical ultracentrifugation of CEP55-EABR to peptide mixtures; type: binding; details: TSG101 peptide added to preformed 2:1 CEP55:ALIX peptide complex
[4] = system: midbodies in HeLa cells; assay: Midbody localization of wild-type and mutant GFP-ALIX expressed in HeLa cells; type: cell-based; details: full-length GFP-tagged ALIX, α−tubulin staining
[5] = target: T2, ALIX 797-809 (Homo sapiens, UniProt Q8WUM4); assay: ITC
T2 chain: QAQGPPYPTYPGY

[6] = target: T3, TSG101 154-166 (Homo sapiens, UniProt Q99816); assay: ITC
T3 chain: QATGPPNTSYMPG

Q: Which “competition for CEP55-EABR binding site” value [1] does the source give for “TSG101 peptide: related TSG101 peptide (residues 154 to 166) (QATGPPNTSYMPG; UniProt Q99816 154-166, looked up, fragment)” here?
A: the two peptides interact with the same site

Q: What about the “affinity relative to ALIX peptide” value [2] of the same molecule?
A: essentially the same affinity and stoichiometry

Q: What about the “competition with ALIX peptide for CEP55 site” value [3] of the same molecule?
A: a peak corresponding to the equivalent amount of uncomplexed peptide is formed, suggesting that TSG101 and ALIX compete for the same site

B1: ALIX^Y806A: full-length ALIX mutant tagged with GFP (protein, UniProt Q8WUM4 1-868, looked up, variant Y806A)
chain: MATFISVQLKKTSEVDLAKPLVKFIQQTYPSGGEEQAQYCRAAEELSKLRRAAVGRPLDKHEGALETLLRYYDQICSIEPKFPFSENQICLTFTWKDAFDKGSLFGGSVKLALASLGYEKSCVLFNCAALASQIAAEQNLDNDEGLKIAAKHYQFASGAFLHIKETVLSALSREPTVDISPDTVGTLSLIMLAQAQEVFFLKATRDKMKDAIIAKLANQAADYFGDAFKQCQYKDTLPKEVFPVLAAKHCIMQANAEYHQSILAKQQKKFGEEIARLQHAAELIKTVASRYDEYVNVKDFSDKINRALAAAKKDNDFIYHDRVPDLKDLDPIGKATLVKSTPVNVPISQKFTDLFEKMVPVSVQQSLAAYNQRKADLVNRSIAQMREATTLANGVLASLNLPAAIEDVSGDTVPQSILTKSRSVIEQGGIQTVDQLIKELPELLQRNREILDESLRLLDEEEATDNDLRAKFKERWQRTPSNELYKPLRAEGTNFRTVLDKAVQADGQVKECYQSHRDTIVLLCKPEPELNAAIPSANPAKTMQGSEVVNVLKSLLSNLDEVKKEREGLENDLKSVNFDMTSKFLTALAQDGVINEEALSVTELDRVYGGLTTKVQESLKKQEGLLKNIQVSHQEFSKMKQSNNEANLREEVLKNLATAYDNFVELVANLKEGTKFYNELTEILVRFQNKCSDIVFARKTERDELLKDLQQSIAREPSAPSIPTPAYQSSPAGGHAPTPPTPAPRTMPPTKPQPPARPPPPVLPANRAPSATAPSPVGAGTAAPAPSQTPGSAPPPQAQGPPYPTAPGYPGYCQMPMPMGYNPYAYGQYNMPYPPVYHQSPGQAPYPGPQQPSYPFPQPPQQSYYPQQ
modifications: full-length GFP fusion
Q: For B1, which “midbody localization of GFP-ALIX” value [4] is on record?
A: no midbody localization above background

B2: wild-type ALIX: full-length wild-type ALIX tagged with GFP (protein, UniProt Q8WUM4 1-868, looked up)
chain: MATFISVQLKKTSEVDLAKPLVKFIQQTYPSGGEEQAQYCRAAEELSKLRRAAVGRPLDKHEGALETLLRYYDQICSIEPKFPFSENQICLTFTWKDAFDKGSLFGGSVKLALASLGYEKSCVLFNCAALASQIAAEQNLDNDEGLKIAAKHYQFASGAFLHIKETVLSALSREPTVDISPDTVGTLSLIMLAQAQEVFFLKATRDKMKDAIIAKLANQAADYFGDAFKQCQYKDTLPKEVFPVLAAKHCIMQANAEYHQSILAKQQKKFGEEIARLQHAAELIKTVASRYDEYVNVKDFSDKINRALAAAKKDNDFIYHDRVPDLKDLDPIGKATLVKSTPVNVPISQKFTDLFEKMVPVSVQQSLAAYNQRKADLVNRSIAQMREATTLANGVLASLNLPAAIEDVSGDTVPQSILTKSRSVIEQGGIQTVDQLIKELPELLQRNREILDESLRLLDEEEATDNDLRAKFKERWQRTPSNELYKPLRAEGTNFRTVLDKAVQADGQVKECYQSHRDTIVLLCKPEPELNAAIPSANPAKTMQGSEVVNVLKSLLSNLDEVKKEREGLENDLKSVNFDMTSKFLTALAQDGVINEEALSVTELDRVYGGLTTKVQESLKKQEGLLKNIQVSHQEFSKMKQSNNEANLREEVLKNLATAYDNFVELVANLKEGTKFYNELTEILVRFQNKCSDIVFARKTERDELLKDLQQSIAREPSAPSIPTPAYQSSPAGGHAPTPPTPAPRTMPPTKPQPPARPPPPVLPANRAPSATAPSPVGAGTAAPAPSQTPGSAPPPQAQGPPYPTYPGYPGYCQMPMPMGYNPYAYGQYNMPYPPVYHQSPGQAPYPGPQQPSYPFPQPPQQSYYPQQ
modifications: full-length GFP fusion
Q: With B2 as the molecule, how does the “midbody localization of GFP-ALIX” value [4] read?
A: strongly localized to midbodies

B3: CEP55 160-217 (protein)
chain: FNSSINNIHEMEIQLKDALEKNQQWLVYDQQREVYVKGLLAKIFELEKKTETAAHSLP
Q: B3 was tested. Which Kd [5] did it give?
A: 1000 nM

Q: And the Kd [6]?
A: ~1000 nM
